Results as given in patent US20050058639A1 (AstraZeneca / MedImmune, published 2005).

T1: human RANTES (human, UniProt P13501 24-91)
T1 construct: also called hRANTES
T1 sequence (looked up): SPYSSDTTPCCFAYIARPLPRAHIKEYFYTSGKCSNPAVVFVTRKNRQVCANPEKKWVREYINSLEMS

T2: recombinant human MCP-2 (human, UniProt P80075 24-99)
T2 construct: also called rhMCP-2
T2 sequence (looked up): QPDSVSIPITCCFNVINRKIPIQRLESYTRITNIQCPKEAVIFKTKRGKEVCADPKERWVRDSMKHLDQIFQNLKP

T3: human GRO/MGSA (human, UniProt P09341 35-107)
T3 construct: also called hGRO/MGSA; GRO-alpha
T3 sequence (looked up): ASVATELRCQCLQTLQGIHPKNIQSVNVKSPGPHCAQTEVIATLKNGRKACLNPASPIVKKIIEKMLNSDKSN

T4: human MIP-1-alpha (human, UniProt P10147 24-92, limits assumed)
T4 construct: also called hMIP-1-alpha
T4 sequence (looked up): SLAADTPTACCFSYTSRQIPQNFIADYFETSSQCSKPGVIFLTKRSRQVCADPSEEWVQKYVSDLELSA


Experiments:
human RANTES = biological target: T1, human RANTES; assay: ELISA, coated antigen
Method: (§1) Determining cross-reactivity of anti-MCP-1 antibodies with other chemokines. ELISA plates (Fisher Cat. No. 12-565-136) were coated with 50 μl/well of MCP-1, MCP-2, MCP-3, MCP-4, RANTES, GRO-alpha, MIP-1 alpha, eotaxin, rat MCP-1 and mouse JE (2 μg/ml) in coating buffer (0.1 M carbonate buffer, pH 9.6, NaHCO₃ 8.4 g/L, then incubated at 4° C. overnight. After incubation, the plates were washed with washing buffer (0.05% Tween 20 in PBS) three times. 200 μL/well blocking buffer (0.5% BSA, 0.1% Tween 20, 0.01% Thimerosal in 1×PBS) were added and the plates incubated at room temperature for 1 hour. After incubation, the plates were washed with washing buffer three times. 50 μL/well of hybridoma supernatants, and positive and negative controls (positive control was anti-MCP-1 antibody purchased from R&D Sciences, and negative control was an antibody to Keyhole Limpet Hemocyanin produced at Abgenix) were added and the plates incubated at room temperature for 2 hours. After incubation, the plates were washed three times with washing buffer. […] After incubation, the plates were washed three times with washing buffer and 100 μL/well of TMB (BioFX Lab. Cat. #TMSK-0 100-01) was added and the plates allowed to develop for about 10 minutes.

recombinant human MCP-2 = biological target: T2, recombinant human MCP-2; assay: ELISA, coated antigen
Method: as §1

rat MCP-1 = rat MCP-1 (rat, UniProt P14844 24-148); assay: ELISA, coated antigen
Sequence of rat MCP-1 (P14844 24-148 limits assumed): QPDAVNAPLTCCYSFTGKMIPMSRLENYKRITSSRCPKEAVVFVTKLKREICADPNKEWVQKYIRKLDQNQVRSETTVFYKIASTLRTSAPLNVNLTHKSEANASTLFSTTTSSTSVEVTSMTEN
Method: as §1

recombinant human MCP-3 = biological target: T5, recombinant human MCP-3 (human, UniProt P80098 24-99); assay: ELISA, coated antigen
T5 construct: also called rhMCP-3
T5 sequence (P80098 24-99 limits assumed): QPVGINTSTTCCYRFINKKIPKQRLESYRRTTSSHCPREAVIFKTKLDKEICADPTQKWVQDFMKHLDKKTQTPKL
Method: as §1

human GRO/MGSA = biological target: T3, human GRO/MGSA; assay: ELISA, coated antigen
Method: as §1

human eotaxin = biological target: T6, human eotaxin (human, UniProt P51671 24-97); assay: ELISA, coated antigen
T6 construct: also called hEotaxin
T6 sequence (P51671 24-97 limits assumed): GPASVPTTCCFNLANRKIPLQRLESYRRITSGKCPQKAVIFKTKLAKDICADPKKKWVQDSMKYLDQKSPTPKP
Method: as §1

[1] = biological target: T7, human monocyte chemo-attractant protein-1 (MCP-1) (human, UniProt P13500 24-99); assay: ELISA, coated antigen
T7 construct: 76-residue recombinant protein from E. coli, bought (PeproTech); also called hMCP-1(MCAF); human MCP-1
T7 sequence (P13500 24-99): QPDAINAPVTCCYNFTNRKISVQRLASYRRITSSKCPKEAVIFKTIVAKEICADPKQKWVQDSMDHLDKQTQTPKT
Method: as §1

[2] = biological target: T8, recombinant mouse JE/MCP-1 (mouse, UniProt P10148 24-148); assay: ELISA, coated antigen
T8 construct: also called rmJE/MCP-1
T8 sequence (P10148 24-148 limits assumed): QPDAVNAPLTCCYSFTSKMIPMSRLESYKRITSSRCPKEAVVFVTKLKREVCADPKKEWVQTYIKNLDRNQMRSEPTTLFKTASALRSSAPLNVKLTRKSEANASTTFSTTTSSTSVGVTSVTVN
Method: as §1

human MIP-1-alpha = biological target: T4, human MIP-1-alpha; assay: ELISA, coated antigen
Method: as §1

recombinant human MCP-4 = biological target: T9, recombinant human MCP-4 (human, UniProt Q99616 24-98, limits assumed); assay: ELISA, coated antigen
T9 construct: also called rhMCP-4
T9 sequence (Q99616 24-98 limits assumed): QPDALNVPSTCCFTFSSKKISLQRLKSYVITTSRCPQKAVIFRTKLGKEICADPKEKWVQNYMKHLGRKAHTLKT
Method: as §1

[3] = biological target: T7, human monocyte chemo-attractant …; assay: ELISA, hybridoma supernatant on coated MCP-1
Method: Selection of candidate antibodies for ELISA. After 14 days of culture, hybridoma supernatants were screened for MCP-1-specific monoclonal antibodies. The ELISA plates (Fisher, Cat. No. 12-565-136) were coated with 50 μl/well of MCP-1 (2 μg/mL) in Coating Buffer (0.1 M Carbonate Buffer, pH 9.6, NaHCO₃8.4 g/L), then incubated at 4° C. overnight. After incubation, the plates were washed with Washing Buffer (0.05% Tween 20 in PBS) three times. 200 μl/well Blocking Buffer (0.5% BSA, 0.1% Tween 20, 0.01% Thimerosal in 1× PBS) were added and the plates incubated at room temperature for 1 hour. After incubation, the plates were washed with Washing Buffer three times. 50 μL/well of hybridoma supernatants, and positive and negative controls were added and the plates incubated at room temperature for 2 hours.
The positive control used throughout was XMG2 MCP-1 Group 1, footpad N160-7 and the negative control was XMG2 KLH Group 1, footpad L627-6. After incubation, the plates were washed three times with Washing Buffer. […] In the secondary screen, three sets of samples (positives in first screening) were screened, one set for hIgG detection, one set for hKappa detection, and one set for hlambda detection. After incubation, the plates were washed three times with Washing Buffer. 100 μL/well of TMB (BioFX Lab. Cat. #TMSK-0100-01) were added and the plates allowed to develop for about 10 minutes (until negative control wells barely started to show color), then 50 μL/well stop solution (TMB Stop Solution (BioFX Lab. Cat. #STPR-0100-01) were added and the plates read on an ELISA plate reader at wavelength 450 nm. The OD readings from the positive wells are presented in Table 9.

[4] = biological target: T7, human monocyte chemo-attractant …; assay: cell-based or functional assay

| Binder | ELISA OD (human RANTES) [OD450] | ELISA OD (recombinant human MCP-2) [OD450] | ELISA OD (rat MCP-1) [OD450] | ELISA OD (recombinant human MCP-3) [OD450] | ELISA OD (human GRO/MGSA) [OD450] | ELISA OD (human eotaxin) [OD450] | ELISA OD [1] [OD450] | ELISA OD [2] [OD450] | ELISA OD (human MIP-1-alpha) [OD450] | ELISA OD (recombinant human MCP-4) [OD450] | ELISA OD-MCP-1 [3] [OD450] | IC50 Ca++ Flux [4] [µg/mL] | IC50 Chemotaxis [4] [µg/mL] |
| --- | --- | --- | --- | --- | --- | --- | --- | --- | --- | --- | --- | --- | --- |
| anti-MCP-1 mAb 3.14.1 (antibody, V domains shown) VH: EQSGPGLVKPSQTLSLTCAISGDSVSSNSAAWNWIRQSPSRGLEWLGRTYYRSKWYSDHAVSVRSRITIYPDTSKNQFSLQLNSVTPEDTAVYYCARDRISGTYVGMDVWGQGTTVTVSS VL: not shown | 0.045 | 0.045 | 0.046 | 0.05 | 0.046 | 0.043 | 0.549 | 0.044 | 0.046 | 0.045 | 4 | 1.3 | 1.4 |
| anti-MCP-1 mAb 3.15.1 (antibody, human IgG4, kappa, V domains shown) VH: QVQLVQSGAEVKKPGASVQVSCKVSGDTLTELSMHWVRQAPGKGLEWMGGFDPEDGETIYARKFQGRVTMTEDTSTDTVYMELSSLRSEDTAVYFCATDSRGYSGYFDNWGQGTLVTVSS VL: not shown | 0.049 | 0.043 | 0.05 | 0.046 | 0.044 | 0.045 | 0.948 | 0.041 | 0.045 | 0.051 | 4 | 0.12 | 0.89 |
| anti-MCP-1 mAb 3.10.1 (antibody, V domains shown) VH: QVQLVQSGAEVKKPGASVKVSCKVSGYTLTELSMHWVRQAPGKGLEWMGGFDPEDGETIYAQKFQGRVMMTEDTSTDTAFMDLSSLRSEDTAVYYCATDDMLTPHYLYFGMDVWGQGTTVTVSS VL: DIQMTQSPSSLSASVGDRVTITCRASQGIRNDLGWYQQKPGKAPKRLIYATSSLQSGVPSRFSGSGSGTEFTLTISSLQPEDFATYYCLQHNTYPFTFGPGTKVDIKR | 0.04 | 0.845 | 0.045 | 0.167 | 0.042 | 0.306 | 0.71 | 0.054 | 0.043 | 0.042 | 3.63 | 0.3 | 0.25 |
| anti-MCP-1 mAb 1.18.1 (antibody, human IgG2, kappa, V domains shown) VH: QVQLVQSGAEVKKPGASVKVSCKVSGYTLTELSMHWVRQAPGKGLEWMGGFDPEDGETIYAQKFQGRVTMTEDTSTDTVYMELSSLRSEDTAMYYCATREFWTGYFDHWGQGTLVTVSS VL: not shown | 0.04 | 0.04 | 0.058 | 0.045 | 0.049 | 0.043 | 1.23 | 0.044 | 0.043 | 0.045 | 0.998 | 0.18 | 0.29 |
| anti-MCP-1 mAb 4.5.1 (antibody, V domains shown) VH: QVQLVQSGAEVKKPGASVKVSCKVSGYTLTELSMHWVRQAPGKGLEWMGGFDPEDGETIYAQKFQGRVTMTEDTSTDTAYMELSSLRSEDTAVYYCATDDFWSGYFDYWGQGTLVTVSS VL: not shown | 0.049 | 0.042 | 0.055 | 0.046 | 0.045 | 0.041 | 0.957 | 0.049 | 0.046 | 0.046 | 3.38 | 0.27 | 0.75 |
| anti-MCP-1 mAb 4.6.1 (antibody, V domains shown) VH: QVQLVQSGAEVKKPGASVKVSCKVSGYTLTELSMHWVRQAPGKGLEWMGGFDPEDGETIYAQKFQGRVTMTEDTSTDTAYMELSSLRSEDTAVYYCATDDFWSGYFDYWGQGTLVTVSS VL: not shown | 0.053 | 0.047 | 0.05 | 0.05 | 0.046 | 0.049 | 0.686 | 0.049 | 0.055 | 0.047 | 3.51 | 0.31 | 0.4 |
| anti-MCP-1 mAb 3.4.1 (antibody, V domains shown) VH: QVQLVQSGAEVKKPGASVKVSCKVSGYTLTELSMHWVRQAPGKGLEWMGGFDPEDGETMYAQKFQGRVTMTEDTSTDTAYMELSSLRSEDTAVYYCATDDFWSGYFDYWGQGTLVTVSS VL: DIVMTQSPDSLAVSLDERATINCKSSQSVLYSPNQKNYLVWYQQKPGQPPKLLLYWASIRESGVPDRFSGSGSGTDFTLTISSLQAEDVAVYYCQQSYFTPWTFGQGTKVEIKR | 0.046 | 0.042 | 0.053 | 0.05 | 0.065 | 0.048 | 1.15 | 0.044 | 0.055 | 0.047 | 3.86 | 0.24 | 0.51 |
| anti-MCP-1 mAb 1.2.1 (antibody, V domains shown) VH: QVQLVQSGAEVKKPGASVKVSCKVSGYTFTELSMHWVRQAPGKGLEWMGGFDPEDGETSYAQKFRGRVTMTEDTSTDTAHMELSSLRSEDTAVYYCATNDFWSGYFDYWGQGTLVTVSS VL: DIQMTQSPSSVSASVGDRVTITCRASQGIDIYLAWYQQKPGKAPKLLINAASSLQNGVPSRFGGSGSGTDFTLTISGLQPEDFATYYCQLTYFFPWTFGQGTKVEIKR | 0.04 | 0.056 | 0.044 | 0.048 | 0.044 | 0.044 | 1.16 | 0.041 | 0.04 | 0.055 | 3.47 | 0.18 | 0.24 |
| anti-MCP-1 mAb 3.16.1 (antibody, V domains shown) VH: QVQLVQSGAEVKKPGASVKVSCKVSGYTLTDLSMHWVRQAPGKGLEWMGGFDPEDGETIYAQKFQGRVTMTEDTSSDTAYMELSSLRSEDTAVYYCATHEFWSGYFDYWGQGTLVTVSS VL: DIVMTQSPDSLAVSLGERATINCKSSQSVLFSSNNKSYLTWYQQKPGQPPKLLIFWASIRESGVPDRISGSGSGTDLTLTISSLQAEDAAVYYCQQYYSSPWTFGQGTKVEIKR | 0.042 | 0.049 | 0.046 | 0.043 | 0.043 | 0.043 | 0.633 | 0.042 | 0.043 | 0.043 | 3.92 | 0.16 | 0.4 |
